System: peptide library, one residue held at a place counted from the S/T acceptor
Experiment: relative phosphorylation of the sub-library (ratio to the mean residue at this position); higher = residue favoured
Outline: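 Relative sub-library phosphorylation, a ratio to the mean residue at that position, was obtained by phosphorimaging and densitometry of spots on streptavidin membranes. Before capture, purified recombinant kinases were incubated for 90 min under kinase-specific conditions with 50 μM biotinylated degenerate peptide sub-libraries and 50 μM ATP spiked with γ-32P-ATP. Each sub-library fixed one residue at one position around a central Ser/Thr.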

MAPK7, construct: aa1-405, human, sequence (Q13164 1-405, looked up): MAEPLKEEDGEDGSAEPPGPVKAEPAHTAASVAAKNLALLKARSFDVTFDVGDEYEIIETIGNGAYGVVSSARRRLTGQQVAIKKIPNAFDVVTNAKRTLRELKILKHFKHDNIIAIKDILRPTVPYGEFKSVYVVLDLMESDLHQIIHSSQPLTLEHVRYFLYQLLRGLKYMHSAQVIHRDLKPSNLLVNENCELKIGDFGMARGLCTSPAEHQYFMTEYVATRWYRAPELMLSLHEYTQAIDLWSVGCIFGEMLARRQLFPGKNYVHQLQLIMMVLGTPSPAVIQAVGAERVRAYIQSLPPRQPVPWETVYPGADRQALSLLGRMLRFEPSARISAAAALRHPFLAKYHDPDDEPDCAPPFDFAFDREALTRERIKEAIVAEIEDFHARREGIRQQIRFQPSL
TBK1, construct: Full length, human, sequence (Q9UHD2 whole entry, looked up): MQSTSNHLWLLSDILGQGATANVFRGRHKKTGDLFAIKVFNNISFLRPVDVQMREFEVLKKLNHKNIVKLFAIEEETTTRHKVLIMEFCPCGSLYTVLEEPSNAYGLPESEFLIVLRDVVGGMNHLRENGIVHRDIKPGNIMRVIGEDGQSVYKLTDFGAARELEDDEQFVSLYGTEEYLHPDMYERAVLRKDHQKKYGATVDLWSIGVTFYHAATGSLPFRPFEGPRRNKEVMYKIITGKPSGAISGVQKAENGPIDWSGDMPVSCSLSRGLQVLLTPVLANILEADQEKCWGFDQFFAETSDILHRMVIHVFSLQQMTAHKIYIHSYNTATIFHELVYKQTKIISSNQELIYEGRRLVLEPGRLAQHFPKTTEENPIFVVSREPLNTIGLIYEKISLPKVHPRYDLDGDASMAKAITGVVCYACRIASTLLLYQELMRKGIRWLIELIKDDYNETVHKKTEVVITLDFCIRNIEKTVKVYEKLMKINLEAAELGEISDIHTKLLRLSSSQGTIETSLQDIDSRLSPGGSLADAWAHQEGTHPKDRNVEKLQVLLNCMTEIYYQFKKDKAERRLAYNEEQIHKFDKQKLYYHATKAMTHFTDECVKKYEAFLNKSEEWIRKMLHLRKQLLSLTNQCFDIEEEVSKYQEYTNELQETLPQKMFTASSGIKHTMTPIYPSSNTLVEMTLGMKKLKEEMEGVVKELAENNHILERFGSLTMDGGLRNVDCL

TBK1, construct: Full length, human (from UniProt Q9UHD2)
relative phosphorylation
Settings | at +1 | at +2 | at +3 | at +4 | at -1 | at -2 | at -3 | at -4 | at -5
A fixed | 0.37 | 1.01 | 0.9 | 0.857 | 1.09 | 0.967 | 1.04 | 1.04 | 1.06
D fixed | 0.296 | 0.857 | 0.879 | 0.864 | 0.882 | 1.15 | 1.27 | 1.29 | 1.16
E fixed | 0.214 | 0.903 | 0.869 | 0.945 | 0.855 | 1.06 | 1.32 | 1.13 | 1.18
F fixed | 1.85 | 1.22 | 1.31 | 1.23 | 0.885 | 1.33 | 0.781 | 0.789 | 0.923
G fixed | 0.548 | 0.851 | 0.974 | 0.897 | 0.814 | 1.12 | 1.56 | 1.19 | 1.19
H fixed | 0.557 | 1.09 | 1.16 | 1.05 | 1.11 | 1.06 | 1.08 | 1.04 | 1.21
I fixed | 2.31 | 1.23 | 0.75 | 1.12 | 0.853 | 0.589 | 0.68 | 0.789 | 0.771
K fixed | 0.249 | 0.616 | 0.555 | 0.768 | 1.13 | 0.613 | 0.985 | 1.07 | 1.19
L fixed | 3.03 | 1.22 | 1.04 | 1.09 | 1.06 | 0.864 | 0.568 | 0.903 | 0.805
M fixed | 2.85 | 1.27 | 1.1 | 1.14 | 1.29 | 1.16 | 0.928 | 0.998 | 0.8
N fixed | 0.349 | 1.02 | 0.962 | 0.876 | 0.957 | 0.883 | 1.09 | 1.2 | 1.09
P fixed | 0.178 | 0.765 | 1.16 | 1.04 | 1.26 | 1.83 | 1.24 | 1.08 | 0.981
Q fixed | 0.333 | 1.06 | 0.884 | 0.921 | 1.05 | 0.928 | 1.24 | 1.03 | 1.03
R fixed | 0.255 | 0.858 | 0.602 | 0.743 | 1.05 | 0.666 | 1 | 0.997 | 1.12
V fixed | 0.957 | 1.3 | 0.974 | 0.889 | 0.834 | 0.658 | 0.7 | 0.721 | 0.784
W fixed | 1.41 | 0.804 | 1.33 | 1.36 | 0.75 | 0.748 | 0.711 | 0.877 | 0.857
Y fixed | 1.24 | 0.931 | 1.54 | 1.22 | 1.12 | 1.39 | 0.812 | 0.861 | 0.859
pThr fixed | 0.465 | 0.783 | 0.625 | 0.849 | 0.582 | 0.817 | 1.14 | 1.01 | 1.06
pTyr fixed | 0.494 | 0.785 | 0.848 | 0.779 | 1.07 | 1.46 | 1.32 | 1.03 | 1.11

PRKACA, construct: Full length, human (from UniProt P17612)
relative phosphorylation
Settings | at +1 | at +2 | at +3 | at +4 | at -1 | at -2 | at -3 | at -4 | at -5
A fixed | 0.926 | 1.32 | 0.946 | 0.869 | 0.966 | 0.373 | 0.581 | 1.11 | 1.08
D fixed | 0.659 | 1.28 | 1.04 | 1.17 | 0.57 | 0.148 | 0.148 | 0.696 | 0.581
E fixed | 0.547 | 0.718 | 0.99 | 1.26 | 0.468 | 0.122 | 0.159 | 0.757 | 0.606
F fixed | 1.33 | 1.06 | 0.999 | 0.813 | 0.713 | 0.19 | 0.197 | 0.637 | 0.996
G fixed | 0.81 | 1.09 | 1.06 | 1.1 | 1.26 | 0.308 | 0.503 | 1.24 | 1.19
H fixed | 0.909 | 1.75 | 1.32 | 1.13 | 1.29 | 0.538 | 1.14 | 1.07 | 1.16
I fixed | 1.33 | 0.697 | 0.625 | 0.91 | 0.334 | 0.147 | 0.152 | 0.606 | 0.671
K fixed | 1.06 | 0.686 | 0.888 | 0.791 | 1.84 | 3.87 | 2.61 | 1.93 | 1.86
L fixed | 1.41 | 0.719 | 0.919 | 0.885 | 0.874 | 0.227 | 0.152 | 0.751 | 0.715
M fixed | 1.2 | 0.772 | 0.774 | 0.898 | 1.07 | 0.198 | 0.192 | 0.837 | 0.748
N fixed | 0.887 | 1.05 | 1.11 | 1.11 | 1.34 | 0.299 | 0.305 | 0.839 | 0.894
P fixed | 0.293 | 1.03 | 1.43 | 1.52 | 1.27 | 0.197 | 0.63 | 0.941 | 0.898
Q fixed | 1.03 | 1.15 | 1.01 | 1.07 | 0.951 | 0.563 | 0.644 | 0.982 | 0.783
R fixed | 1.04 | 0.818 | 1.04 | 0.971 | 1.76 | 9.26 | 8.72 | 2.43 | 2.05
V fixed | 1.33 | 0.953 | 0.696 | 0.779 | 0.468 | 0.155 | 0.179 | 0.631 | 0.744
W fixed | 1.27 | 0.905 | 1.16 | 0.999 | 0.775 | 0.208 | 0.324 | 0.772 | 1.13
Y fixed | 0.967 | 0.992 | 1 | 0.732 | 1.04 | 0.199 | 0.373 | 0.771 | 0.892
pThr fixed | 0.891 | 0.743 | 0.951 | 1.62 | 0.312 | 0.225 | 0.261 | 0.625 | 0.644
pTyr fixed | 0.993 | 1.03 | 1.14 | 1.42 | 0.798 | 0.214 | 0.283 | 0.742 | 0.703

MAPK7, construct: aa1-405, human (from UniProt Q13164)
relative phosphorylation
Settings | at +1 | at +2 | at +3 | at +4 | at -1 | at -2 | at -3 | at -4 | at -5
A fixed | 5.25 | 0.808 | 0.997 | 0.943 | 0.957 | 0.867 | 1.2 | 1.21 | 1.14
D fixed | 0.374 | 0.579 | 0.866 | 1.2 | 0.745 | 0.491 | 0.862 | 1.11 | 0.83
E fixed | 0.338 | 0.519 | 0.827 | 0.951 | 0.646 | 0.484 | 0.872 | 1.12 | 0.81
F fixed | 0.47 | 0.908 | 0.941 | 0.922 | 0.956 | 0.658 | 0.778 | 0.919 | 1.03
G fixed | 1.67 | 1 | 1.14 | 1.08 | 0.808 | 0.666 | 1.08 | 1.09 | 0.977
H fixed | 0.466 | 0.917 | 0.886 | 1.05 | 1.28 | 0.568 | 0.822 | 0.913 | 1.07
I fixed | 0.372 | 1.08 | 1.45 | 0.998 | 0.684 | 1.43 | 0.988 | 0.891 | 1.02
K fixed | 0.449 | 1.24 | 0.59 | 0.947 | 0.834 | 0.797 | 0.827 | 0.943 | 0.988
L fixed | 0.54 | 1.02 | 1.27 | 0.918 | 1.61 | 2.64 | 1.07 | 0.938 | 1.06
M fixed | 0.523 | 1.08 | 1.12 | 0.993 | 1.66 | 1.91 | 1.13 | 0.976 | 0.986
N fixed | 0.464 | 0.963 | 0.789 | 0.8 | 0.948 | 0.61 | 1.06 | 0.954 | 1
P fixed | 3.79 | 0.758 | 1.13 | 1.04 | 1.13 | 2.1 | 1.87 | 1.16 | 1.03
Q fixed | 0.438 | 0.927 | 0.818 | 1.07 | 1.02 | 0.928 | 0.926 | 0.941 | 0.867
R fixed | 0.471 | 2 | 0.794 | 0.939 | 0.983 | 0.695 | 1.04 | 0.894 | 1.11
V fixed | 0.426 | 1.16 | 1.08 | 0.975 | 0.69 | 0.986 | 0.96 | 0.982 | 1.01
W fixed | 0.534 | 1.1 | 1.2 | 1.21 | 0.844 | 0.631 | 0.791 | 1.03 | 0.892
Y fixed | 0.429 | 0.945 | 1.1 | 0.97 | 1.2 | 0.533 | 0.737 | 0.931 | 1.18
pThr fixed | 0.632 | 0.779 | 0.702 | 0.863 | 0.541 | 0.976 | 0.946 | 1.07 | 0.901
pTyr fixed | 0.518 | 0.587 | 0.989 | 0.835 | 0.945 | 0.815 | 1.02 | 1.11 | 1.04

CDC42BPB, construct: aa1-473, human (from UniProt Q9Y5S2)
relative phosphorylation
Settings | at +1 | at +2 | at +3 | at +4 | at -1 | at -2 | at -3 | at -4 | at -5
A fixed | 0.871 | 1.22 | 0.922 | 0.791 | 0.734 | 0.478 | 0.556 | 0.951 | 0.922
D fixed | 0.4 | 0.468 | 0.548 | 0.721 | 0.379 | 0.196 | 0.199 | 0.472 | 0.427
E fixed | 0.435 | 0.373 | 0.654 | 0.667 | 0.313 | 0.181 | 0.204 | 0.506 | 0.479
F fixed | 0.776 | 0.935 | 1.01 | 0.821 | 0.552 | 0.442 | 0.381 | 0.718 | 0.843
G fixed | 0.803 | 1.1 | 1.42 | 1.07 | 0.883 | 0.45 | 0.44 | 0.974 | 1.04
H fixed | 0.962 | 1.19 | 1.2 | 1.11 | 1.21 | 0.989 | 1.03 | 1.06 | 0.99
I fixed | 1.55 | 1.32 | 0.96 | 0.924 | 0.572 | 0.419 | 0.382 | 0.651 | 0.788
K fixed | 0.865 | 1.58 | 1.03 | 1.34 | 2.46 | 2.78 | 2.55 | 2.46 | 2.54
L fixed | 1.74 | 0.816 | 0.841 | 0.852 | 1.36 | 0.423 | 0.326 | 0.7 | 0.645
M fixed | 1.24 | 0.823 | 0.944 | 0.919 | 1.04 | 0.459 | 0.36 | 0.775 | 0.664
N fixed | 1.89 | 0.819 | 0.918 | 0.856 | 1.2 | 0.787 | 0.524 | 0.756 | 0.812
P fixed | 0.404 | 0.842 | 0.888 | 1.38 | 0.786 | 0.433 | 0.371 | 0.873 | 0.875
Q fixed | 1.08 | 0.699 | 0.829 | 1.08 | 1.09 | 0.798 | 0.648 | 0.851 | 0.786
R fixed | 1.41 | 1.65 | 1.52 | 1.52 | 2.15 | 6.46 | 7.75 | 3.03 | 2.81
V fixed | 0.983 | 1.13 | 0.936 | 0.787 | 0.667 | 0.397 | 0.335 | 0.637 | 0.768
W fixed | 0.852 | 0.934 | 1.06 | 1.23 | 0.648 | 0.718 | 0.524 | 0.849 | 0.756
Y fixed | 0.736 | 1.12 | 1.33 | 0.93 | 0.97 | 0.591 | 0.425 | 0.735 | 0.856
pThr fixed | 0.479 | 0.762 | 0.582 | 0.698 | 0.344 | 0.329 | 0.352 | 0.647 | 0.611
pTyr fixed | 0.553 | 0.745 | 0.707 | 0.685 | 0.467 | 0.319 | 0.545 | 0.558 | 0.62

Reference: the supplement of paper PMC9876800
